Among the data in US20240002818 are activity (% integration efficiency) values, retold here.

This series relates to T1, Myotis lucifugus helper (Myotis lucifugus).
T1 sequence: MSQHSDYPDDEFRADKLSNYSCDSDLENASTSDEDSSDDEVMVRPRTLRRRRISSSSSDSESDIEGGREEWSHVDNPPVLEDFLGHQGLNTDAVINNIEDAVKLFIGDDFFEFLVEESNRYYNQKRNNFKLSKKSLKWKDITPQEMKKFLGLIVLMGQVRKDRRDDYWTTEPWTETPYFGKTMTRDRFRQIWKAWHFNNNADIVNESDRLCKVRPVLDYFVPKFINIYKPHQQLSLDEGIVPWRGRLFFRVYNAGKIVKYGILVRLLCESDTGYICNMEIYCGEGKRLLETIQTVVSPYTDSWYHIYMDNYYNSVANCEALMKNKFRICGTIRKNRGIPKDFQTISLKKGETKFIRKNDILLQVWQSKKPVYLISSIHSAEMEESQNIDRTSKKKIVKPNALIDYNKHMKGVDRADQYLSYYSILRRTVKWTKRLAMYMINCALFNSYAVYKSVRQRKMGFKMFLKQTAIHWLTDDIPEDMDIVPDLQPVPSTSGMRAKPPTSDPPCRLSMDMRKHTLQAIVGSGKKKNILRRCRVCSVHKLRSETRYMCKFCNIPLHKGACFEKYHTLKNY
Description: cell_activity. The conditions noted are these: HEK293, GFP+ cells day 21 relative to day 2; indirect evidence of end recognition.

In the case of “Myotis lucifugus donor ends (left/right)”, the activity (% integration efficiency) came out at 3.5.
